# Measurements as given in the nanobody polyreactivity screen of Harvey et al. (2022).
# Assay: yeast display, Sf9 membrane polyspecificity reagent, FACS + sequencing; frameworks hold sequencing errors
# Procedure, shortened: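 Nanobodies from a synthetic yeast display library (Saccharomyces cerevisiae BJ5465), induced 36–48 hours with galactose, were stained 1 hour at 4 °C with 10% biotinylated, detergent-solubilized Sf9 membrane reagent, enriched on streptavidin microbeads, then FACS-sorted. Anti-HA (expression) and streptavidin (reagent binding) fluorescence set low and high (top ~1%) gates. Polyreactivity labels come from the gate of origin. Genes were colony-PCR amplified, MiSeq 2 × 250 sequenced and filtered by CDR length.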
row,Sequence,polyreactivity (PSR sort gate)
1,QDQHVESGGGLVQAGGSLRLICAASGNTFGWYAMGWYRQAPGKEREFVADISWSGGSTYYADSVKGRFTISRDNAKNTVYLQMNSLKQEDTAVYYCNAVWLYYWHADQYFEYDYWGQGTQVTVSS,high polyreactivity
2,QVQLVESGGGLVQAGGSLRLSCAASGRTFQLNAMGWYRQAPGKERELFAAISTRGGSTYYADSVKGRFTISRDNAKNTVYLQMNSLKPEDTAVYYCATDPSFSRGYKEGGGYDYWGQGTQVTVSS,high polyreactivity
3,QVQLEESGGGLVQEGGSLRLSCAASGSIFGGYVMGWYRQAPGKERELVAVITKRGGSTYYADSVKGRFTISRDNAKNTVYFQMNSLKPEDTAVYYCNKDGYYASVLGYDYWGQGTQVTVSS,high polyreactivity
4,QVQLVESGGGLVQAGGSLRLSCAASGGSFLVNDMGWYRQAPGTERELVAAITSGGGTYYADSVKGRFTISRDNAKNTVYLQMNSLNPEDTAVYYCARDTYRPIVSNESYGYWGQGTQVTVSS,low polyreactivity
5,QVQLVESGAGLVQAGGSLRISCAASGRIFAQYAMGWYRQAPGKERELVAAITTTGRTYYADSVKGRFTISRDNAKNTVYLQMNSTKPEETAVYYCAVGYHAPKVSTSDPRYDYWGQGTQVTVSS,low polyreactivity
6,QVQLVESGGGLVQAGGSLRLSCAASGSTFSDNAMGWYRQAPGKEREFVAAINETGGSTYYADSVKGRFTISRDNAKNTVYVQMNSLKPEDTAVYYCNADIDPYGATYAIEYDYWGQGTQVTVSS,low polyreactivity
7,QVQLVESGGGLFQAGGSLRLSCAASGRIFIVITMGWYRQAPGKERELVATIDSDGDTNYADSVKGRFTISRDNAKNTVYLQMNSLKPEDTAVYYCAAYYTHTLAALKGGRMDYWGQGTQVTVSS,low polyreactivity
8,QVQLVESGGGLVQAGGSLRLSCAASGRIFRYNAMGWYRQAPGKERELVAAISRSGGSTYYADSVKGRFTISRDNAKNTVYLQINSLKPEDTAVYYCAVGSPYGGRAPWVRGGDYWGQGTQVTVSS,high polyreactivity
9,QVQLVESGGGLVQAGGSLRLSCAASGRNFAPNAMGWYRQAPGKERELVAAISGSGTSTYYADSVKGRFTISRDNAKNTVYLQMNSLKPEDTAVYYCAKSARGRRGGFDYWGQGTQVTVSS,low polyreactivity
10,QVQLVESGGGLVQAGGSLRLSCAASGSTFEYYVMGWYRQAPGKERELVAAISGSGGGTYYADSVKGRFTISRDNEKNTVYLQMNSLKPEDTAVYYCAAVATQEKYDYWGQGTQVTVSS,low polyreactivity
11,QVQLVESGGGLVQAGGSLRLSCAASGFTFYVNAMGWYRQAPGKERELVAAITYDGDSTYYADSVKGRFTISRDNAKNTVYLQMNSLKPEDTAVYYRNTVYGPDLDGTEYDYWGQGTQVTVSS,low polyreactivity
12,QVQLVESGGGLVQAGGTLSLSCAASGFIFYRTARGWSRQAPGKDRELVAGISRVGSTYYADSVKGRFTISRDNAKNTVYLQMNSLKPEDTAVDYCAARSGYFYGYGYWGQGTQVTVSS,high polyreactivity
13,QVQLVESGGGLLQAGRSLRLSCAASGSTFRAYTMGWYRQAPGIERELVAAINSGGSTYYADSVKGRFTISRDNAKNTVYLQMNSLKAEDTAVYYCNRRFYRAVKYGYWGQGTQVTVSS,low polyreactivity
14,QVQLVESGGGLVQAGGSLRLSCAPCGIIFTDYAMGWYRQAPGKERELVAAISSGGGSTYYADSVKGRFTISRDNAKNTVYLQMNSLKPEDTAVYYCNARSPYYSYLLHAYRVFDYWGQGTQVNVSS,high polyreactivity
15,QVQLVESGGGLVQAGGSLRLSCAASGRTFYNYAMVWYRQAPGKERELVAAIDWGSDSTYYADSVKGRFTISRDNAKNTVYLQMNSLKPEDTAVYYCAAYLVSVYSRTYDYWGQGTQVTVSS,low polyreactivity
16,QVQLVESGRGLVQAGGSLRLSCAASGRIFRYYTMGWYRQAPGKERELVATISWNGSNTYYADSVKGRFTISRDNAKNTVYLQMNSLKPEDTAVYYCAAGVLPGLYNGARLFDYWGQGTQVTVSS,low polyreactivity
17,QVQLVESGGGLVQAGGSLRLSCAASGLTSNGYDMGWYRQAPGKERELVAGITSGGSPYYADSVKGRFTISRDNAKNTVYLQMNSLKPEDTAVYYCNADVTYYIVWEYDYWGQGTQVTVSS,low polyreactivity
18,QVQLVESGGGLVQAGGSLRLSCAASGSIFGGYGMGCYRQAPGKERALVAAITSGSSTYYADSVKGRFTISRDNAKKTVYLQMPSLTPEDTAGYYCNADYAYYRDVYSPYDSWGQGTQVTVSS,low polyreactivity
19,QVQLVESGGGLVQAGGSLRLSCASYGYTFFNYAKGWYRQAPGKERELVAAITTGGSTYYADSVKGRFTISRDNAKNTVYLQMNSLKPEDTAVYYCPFDYWGQGTQVTVSS,high polyreactivity
20,QVQLVESGGGLVQAGGSLRLSCAASGFTSTINAMGWYRQAPGKERELVAAISVSSGSTYYADSVKGRFTISRDNAKNTVYLQMNSLKPEDTAVYYCATGISRDYIYIILRYDYWGQGTQVTVSS,low polyreactivity

row,Sequence,polyreactivity (PSR sort gate)
1,QVQLVESGGGLVQAGGSLRLSCGASGSIFPDYAMGWYRQAPGKERELVAAITWSGGSTYYADSVKGRFTISRDNAKNTVNLQMNSLKPEDTAVYYCAAQLDPEWRGYFDQYGYDYWGQGTQVTVST,low polyreactivity
2,QVQLVESGGGLVQAGGSLLLSCAASGGTFRNNAMGWYRQAPVKERELVAAISSSGTSTYYADSVKGRFTISRDNVKNTVYLQMNSLKPEDTAVYYCNADALGSPWWDHMDYWGQGTQVTVSS,low polyreactivity
3,QVQLVESGGGLVQAGGSLRLSCAASGFTVYYYALGWYRQAPGKERELVAAISDSGGITSYADSVKGRFTISRDNAKNTVYLQMNSLKPEDTAVYYCAYIFGWSSSSKSYYYWGQGTQVTVSS,low polyreactivity
4,QVQLVESGGGLVQAGGSLRLSCAASGSTFTWNGMGWYRQAPGKERELVATISYGGGRTYYADSVKGRFTISRDNAKNTVYLQMNSLKPEDTAVYYCAADFTRYTQVHALRLSEYWGQGTQVTVSS,low polyreactivity
5,QVQLVESGGGLVQAGGSLRLSCAASGILLFNAMGWYRQAHGKERELVAAINSGGSTNYADSVKGRFPISRDNAKNTGYLQMNSLKPEDTAVYYCAKDTPFTLRVWAEGGMDYWGQGTQVTVSS,low polyreactivity
6,QVQLVESGGGLVQAGGCLRLSCAASGSTFRGNAMGWYRQAPGKERELVAAITYSGGSTDYADSVKGRFTISRDNAKNTVYLQMNSLKPDDTAVYYCAARWYYYPLLYDYWGQGTQVTVSS,low polyreactivity
7,QVQLVESGVGLVQAGGSLRLSSAASGSTFGYYTMGWYRQAPGKERELVASISWSGASTHYADSVKGRFTISRDNAKNTVYLQMNSLKPDDTEVYYCAADWQQQPGTNSFDYWGQGTQVTVSS,low polyreactivity
8,QVQLVESGGGLVHAGGSLRLSCAASGFTFYYNDMGWYRQAPGKERELVAAIRWSGGNTYYADSVKGRFKISRDNAKNTVYLQMNSLKPEDTAVYYCSAGTQWYSQVYIYYYWGQGTQVTVSS,low polyreactivity
9,QVQLVESRGGLVQAGGSLRLSCAASGSTFPGYAMGCYRQAPGKERELVAAISRSGGSTSYADSVKGRFTISRDKAQNTVYLQLHSLKPEDTEVYYCAAQVQGTSRAKQRGGIGELDYWGQGTQVTVSS,low polyreactivity
10,QVQLVESVGGLVQAGGSLRLSCAASGFTFDENAMGWYSQAPGINYSGASTYYADSVKGRFTLSRDNAKNTVYLQMNSLKQEDTAVNYCAAEVVAQLNYWGPGTQVTVSS,low polyreactivity
11,QVQLVDSGGGLVQAGGSLRLICPASGSIFSTYAMGWYRQAPGKERELLAAINRGTSTNYADSVKGRFTISRDNAKNTVYLQMNCLKPEDTAVYYCAAYYRGRYGPRRSEYWGQGTQVTVSS,high polyreactivity
12,QVQLVESGGGLVPAGGSLRLSCAASGRTLGYNAMGWYRQAPGKERELVAAISRGDSTNYADSVKGRFTISRDNAKNTVYLQMNSLKPEDTAVYYCAAAFPRYRSRAIRVDYWGQGTQVTVSS,high polyreactivity
13,QVQLVESGGGLVQAGGSLRLSCAASGRTFWYYPMGWYRQAPGKEREFVAAISWSGGSTYYADSVKGRFTISRDNAKNTVYLQMNSLKPEDTAVYYCAADRYDSSQFYYWGQGTQVTVSS,low polyreactivity
14,QVQLVESGGRLVQAGGSLRLSSAASGRTFTSYAMGWYRQSPGKERELVAAISRRGGSTYYADSVKGRFTISRDNAKNTVYLQMNSLKPEDTAVYYCNKATRYYLVELNYWGQGTQVTVSS,high polyreactivity
15,QVQLQESAGGLVQAGGSLRLSCAASGTISTDSYMGWYRQAPGKERKFVATIGYGGITYYADSVKGRSTISRDSAKNTVYLQMNSLKPEDTAVYYCAVNSYYPDHYWYWGRGTQVTVSS,high polyreactivity
16,QVQLVESGGGLVQARGSLRLSCAASGSIFDDYAMGWYRQAPGKERELVAAISSSGTSTYYADSVKGRFTISRDNAKNTVYLQLNSLKPEDTAVYYCAARSAILKSGYLMEYWGEGTQVTVSS,low polyreactivity
17,QVQLVESGGGLVQAGGSLRLSCAASGRIFKYYAMGWYRQAPGKERELVARISSRGGSTNYADSVKGRFTISRDNAKNTVYLQMNSLKPEDTAVYYCAAQYQNFPYGYWGQGTQVTVSS,high polyreactivity
18,QVQLVESGGGLVQAGGSLRISCAASGSTFEVNAMGWYRQAPGKERELVAAISYRGTSTYYADSVKGRFTISRDNAKNTVYLQMNSLKPEDNAVYYCAAEWYDWYWEYDSWGQGTQVTVSS,high polyreactivity
19,QVQLVESGGGLVQAGGSLRLSCAASGSTFHSNAMGWYRQAPGKERELVAAISQGGGRTYYADSVKGRFSISRDNAKNTVYLQMNSLKPEDTAVYYCNRRTRGLIDGGMDYWGQGTQGTVSS,low polyreactivity
20,QVQLVESGGGLVQPGGSLRLSCAASGRTFGDYVMGWDREAPGKERELVAVITYRGGSTYYADSVKGRFTISRDNAKNTVHLQMNSLKPEDTAVYYCAAAARAGLKRYYYWGQGTQVTVSS,high polyreactivity
